Measured values from article PMC5821942, “Crystal structure of IspF from Bacillus subtilis and absence of protein complex assembly amongst IspD/IspE/IspF enzymes in the MEP pathway” (Bioscience Reports, 2018).

B1: 2-C-Methyl-D-erythritol 2,4-cyclodiphosphate synthase (IspF) from Bacillus subtilis (enzyme, Bacillus subtilis 168)
chain: MFRIGQGFDVHQLVEGRPLIIGGIEIPYEKGLLGHSDADVLLHTVADACLGAVGEGDIGKHFPDTDPEFKDADSFKLLQHVWGIVKQKGYVLGNIDCTIIAQKPKMLPYIEDMRKRIAEGLEADVSQVNVKATTTEKLGFTGRAEGIAAQATVLIQKG
notes: IspF of B. subtilis 168 (DSM 23778); ispF gene amplified from genomic DNA, ~477 bp product, cloned BamHI/XhoI into pGEX-6P-1; GST removed by PreScission protease; also called BsIspF; MEcDP synthase; source: E. coli DH5α (pGEX-6P-1), purified (Glutathione Sepharose 4 Fast Flow, Resource Q, Superdex 75)
B2: 2-C-Methyl-D-erythritol-4-phosphate cytidyltransferase (IspD) from Bacillus subtilis (enzyme, Bacillus subtilis 168, UniProt Q06755 1-232, looked up)
chain: MSYDVVIPAAGQGKRMKAGRNKLFIELKGDPVIIHTLRVFDSHRQCDKIILVINEQEREHFQQLLSDYPFQTSIELVAGGDERQHSVYKGLKAVKQEKIVLVHDGARPFIKHEQIDELIAEAEQTGAAILAVPVKDTIKRVQDLQVSETIERSSLWAVQTPQAFRLSLLMKAHAEAERKGFLGTDDASLVEQMEGGSVRVVEGSYTNIKLTTPDDLTSAEAIMESESGNKHV
notes: IspD of B. subtilis 168 (DSM 23778); ispD gene amplified from genomic DNA, ~699 bp product, cloned BamHI/XhoI into pGEX-6P-1; GST removed by PreScission protease; also called BsIspD; source: E. coli DH5α (pGEX-6P-1), purified (Glutathione Sepharose 4 Fast Flow, Resource Q, Superdex 75)
B3: 2-C-Methyl-D-erythritol-4-phosphate cytidyltransferase (IspD) from Escherichia coli (enzyme, Escherichia coli K12, UniProt Q46893 1-236, looked up)
chain: MATTHLDVCAVVPAAGFGRRMQTECPKQYLSIGNQTILEHSVHALLAHPRVKRVVIAISPGDSRFAQLPLANHPQITVVDGGDERADSVLAGLKAAGDAQWVLVHDAARPCLHQDDLARLLALSETSRTGGILAAPVRDTMKRAEPGKNAIAHTVDRNGLWHALTPQFFPRELLHDCLTRALNEGATITDEASALEYCGFHPQLVEGRADNIKVTRPEDLALAEFYLTRTIHQENT
notes: IspD of E. coli K12; ispD gene PCR amplified and inserted into pET-22b; histidine tag removed by thrombin; also called EcIspD; source: E. coli BL21 (DE3) (pET-22b), purified (Ni-NTA, Resource Q, Superdex 75); not shown: His6, C-terminal, cleaved
B4: 2-C-Methyl-D-erythritol 2,4-cyclodiphosphate synthase (IspF) from Escherichia coli (enzyme, Escherichia coli K12, UniProt P62617 1-159, looked up)
chain: MRIGHGFDVHAFGGEGPIIIGGVRIPYEKGLLAHSDGDVALHALTDALLGAAALGDIGKLFPDTDPAFKGADSRELLREAWRRIQAKGYTLGNVDVTIIAQAPKMLPHIPQMRVFIAEDLGCHMDDVNVKATTTEKLGFTGRGEGIACEAVALLIKATK
notes: IspF of E. coli K12; ispF gene PCR amplified and inserted into pET-22b; histidine tag removed by thrombin; also called EcIspF; source: E. coli BL21 (DE3) (pET-22b), purified (Ni-NTA, Resource Q, Superdex 75); not shown: His6, C-terminal, cleaved

What was measured:
[1] = biological target: the molecule itself; assay: crystal structure; BsIspF native and with CMP, space group P2(1), six monomers in the asymmetric unit, 1.99 Å
[2] = biological target: the molecule itself; assay: SEC; Superdex75 10/300 GL; single B. subtilis proteins and triple mixture (0.2 mg each, 250 μl); 100 mM NaCl, 25 mM Tris/HCl pH 8.0; 1 mM MgCl2, 1 mM MEP, 1 mM CTP if IspD present; 30°C 30 min
[3] = biological target: the molecule itself; assay: SEC; Superdex200 10/300 GL; single E. coli proteins and triple mixture (0.2 mg each, 250 μl); 100 mM NaCl, 25 mM Tris/HCl pH 8.0; 1 mM MgCl2, 1 mM MEP, 1 mM CTP if IspD present; 30°C 30 min

Protein	stoichiometry N [3]	also measured
B1		stoichiometry N [1]: 3
B2		stoichiometry N [2]: 2
B3	2	
B4	3	
